From patent publication US11780895B2, “Targeted DNA demethylation and methylation” (The Jackson Laboratory, priority 2016, dated 2023)

What was measured:
hMLH1 promoter = experiment: Bisulfite conversion and sequencing of the hMLH1 promoter region; type: cell-based, human; conditions: untransfected HEK293T cells treated for 6 days
Description: Casilio-mediated delivery of demethylation enzymes alters methylation state of targeted genomic locus. Evidence that the shown Casilio-ME-induced activation of hMLH1 transcription is a result of TET1-mediated cytosine demethylation within the targeted promoter region came from DNA sequencing of hMLH1 promoter after bisulfite conversion. Bisulfite treatment of genomic DNA deaminates unmethylated cytosines to produce uracils that are subsequently replicated as thymine. However, methylated cytosines are protected from conversion to uracils, thus allowing one to determine cytosine methylation states at single-nucleotide resolution by direct sequencing.
To assess changes in methylation states of CpG island within hMLH1 promoter region after Casilio-ME-mediated transcription activation, time course experiment were carried out where cells were collected 3, 4, 5, and 6 days post transfection, for analysis of cytosine methylation as well as transcription activation, and protein expression. HEK293T were transfected with Casilio-ME components that includes Ct-fusion PUFa-TET1 effector and a combination of 2 sgRNAs (RNA guides 3 and 7).
Cell culture and transfection. […]

SOX2 = SOX2 gene expression by quantitative reverse-transcription PCR after targeting Dnmt effectors to the SOX2 promoter; type: cell-based; conditions: with dCas9 and sgRNA-PBS targeting SOX2 promoter; compared with dCas9 direct fusions
Procedure: Establishment of a dCas9-expressing cell line. The day prior to transfection, Lenti-X 293T cells were seeded into 6-well plates at 1.2 million cells per well. The cells were transfected with the supercoiled packaging plasmids (pLP1 (gag/pol), pLP2 (rev), and VSV-G (envelope)) and a dCas9 lentiviral expression plasmid through Lipofectamine 3000 reagent (Invitrogen). At 6 h posttransfection, medium was exchanged for fresh. At 24 h posttransfection, 2 ml of medium containing the lentivirus were collected and centrifuged for 10 minutes at 2,000 rpm to remove cellular debris. The supernatant was filtered utilizing a […] pore filter (Millipore), and the lentivirus was frozen at −80° C. until needed. HEK293T cells, seeded into a 12-well plate at 150,000 cells per well, were transduced with 500 μl of the dCas9 lentivirus in culture medium supplemented with 5 μg/ml polybrene for 12 hours, and subsequently selected with Blasticidin antibiotics on the third day post transduction.
Transfection. HEK293T, and HEK293T/dCas9 cell lines were seeded into 12-well plates at 150,000 cells per well. […] At 3 day post-transfection, the cells were sorted for GFP (sgRNA expression constructs are marked by GFP) with fluorescence-activated cell sorting (FACS) and re-plated into 12 or 24-well plates.
Quantitative reverse-transcription PCR. […]

TetO::tdTomato transgene = TetO::tdTomato transgene activation measured by FACS; type: cell-based; conditions: with dCas9 and sgTetO-PBS; compared with 5-10 copies
Description: In particular, to test whether appending PBS to the 3′ end of sgRNA affects sgRNA function, a series of modified Tet-targeting (sgTetO) or non-targeting control (sgControl) sgRNA were generated, with 0 copy, 5 copies, 15 copies, 25 copies, and 47 copies of the 8-mer Pumilio homologue domain-binding sequence (PBS) for PUF (3-2) (also simply referred to as PUFa) [PBS32 or PBSa: SEQ ID NO:8 (5′-UGUAUgUA-3′)], PUF(6-2/7-2) (also simply referred to as PUFb) [PBS6272 or PBSb: SEQ ID NO:9 (5′-UugAUAUA-3′)].
Cells were transfected with dCas9-VP64 with the different sgRNA scaffolds, and were analyzed by fluorescent-activated cell sorting (FACS) two days after transfection (FIG. 1B).
Fusions of PUF(3-2)::VP64 and PUF(6-2/7-2)::VP64, which interacts with sgRNA (sgRNA-PBS32) with 5′-UGUAUgUA-3′ binding sites and sgRNA-PBS6272 with 5′-UugAUAUA-3′ binding sites, respectively, were created, and their activity to turn on tdTomato expression in conjunction with dCas9 was tested. In addition, two additional pairs, PUFw-VP64 recognizing PBSw (5′-UGUAUAUA-3′) and PUFc-VP64 recognizing PBSc (5′-UugAUgUA-3′), were also constructed to test their ability to activate the same TetO::tdTomato expression in conjunction with dCas9 (FIG. 1D).
Cell Culture for Experiments. HEK293T cells were cultivated in Dulbecco's modified Eagle's medium (DMEM)(Sigma) with 10% fetal bovine serum (FBS)(Lonza), 4% Glutamax (Gibco), 1% Sodium Pyruvate (Gibco) and penicillin-streptomycin (Gibco). Incubator conditions were 37° C. and 5% CO2. For activation experiments, cells were seeded into 12-well plates at 100,000 cells per well the day before being transfected with 200 ng of dCas9 construct, 100 ng of modified sgRNA and 100 ng of PUF-fusion with Attractene transfection reagent (Qiagen). After transfection, cells were grown for 48 hrs and harvested for either RNA extraction or fluorescent-activated cell sorting (FACS). […]
Fluorescent-Activated Cell Sorting. […] Samples were analyzed on a FACScalibur flow cytometer using CellQuest Pro software (BD Bioscience). […] were collected in each run.

With `Nc1ncn([C@@H]2O[C@H](CO)[C@@H](O)[C@H]2O)c(=O)n1` [5′azacytidine, 5-Azacytidine] the “bisulfite conversion frequency within hMLH1 promoter region” value (hMLH1 promoter) was “increased bisulfite conversion frequency on multiple CpG sites”.

B1: Dnmt3a-PUF: Dnmt3a catalytic domain fused to the N-terminus of PUFa (protein)
chain: MGPANHDQEFDPPKVYPPVPAEKRKPIRVLSLFDGIATGLLVLKDLGIQVDRYIASEVCEDSITVGMVRHQGKIMYVGDVRSVTQKHIQEWGPFDLVIGGSPCNDLSIVNPARKGLYEGTGRLFFEFYRLLHDARPKEGDDRPFFWLFENVVAMGVSDKRDISRFLESNPVMIDAKEVSAAHRARYFWGNLPGMNRPLASTVNDKLELQECLEHGRIAKFSKVRTITTRSNSIKQGKDQHFPVFMNEKEDILWCTEMERVFGFPVHYTDVSNMSRLARQRLLGRSWSVPVIRHLFAPLKEYFACVIDGGGGSDPKKKRKVDPKKKRKVDPKKKRKVGSTGSRNDGGGGSGGGGSGGGGSGRAGILPPKKKRKVSRGRSRLLEDFRNNRYPNLQLREIAGHIMEFSQDQHGSRFIQLKLERATPAERQLVFNEILQAAYQLMVDVFGNYVIQKFFEFGSLEQKLALAERIRGHVLSLALQMYGSRVIEKALEFIPSDQQNEMVRELDGHVLKCVKDQNGNHVVQKCIECVQPQSLQFIIDAFKGQVFALSTHPYGCRVIQRILEHCLPDQTLPILEELHQHTEQLVQDQYGNYVIQHVLEHGRPEDKSKIVAEIRGNVLVLSQHKFASNVVEKCVTHASRTERAVLIDEVCTMNDGPHSALYTMMKDQYANYVVQKMIDVAEPGQRKIVMHKIRPHIATLRKYTYGKHILAKLEKYYMKNGVDLGDPKKKRKVDPKKKRKVGGRGGGGSGGGGSGGGGSGPA
With B1 the “repression of SOX2 gene expression” value (SOX2) was “more robust repression of SOX2 gene expression compared to direct fusions”.

B2: PUFb-VP64: PUF(6-2/7-2) domain with NLS fused to VP64 (protein)
chain: MGILPPKKKRKVSRGRSRLLEDFRNNRYPNLQLREIAGHIMEFSQDQHGSRFIQLKLERATPAERQLVFNEILQAAYQLMVDVFGNYVIQKFFEFGSLEQKLALAERIRGHVLSLALQMYGCRVIQKALEFIPSDQQNEMVRELDGHVLKCVKDQNGNHVVQKCIECVQPQSLQFIIDAFKGQVFALSTHPYGCRVIQRILEHCLPDQTLPILEELHQHTEQLVQDQYGSYVIEHVLEHGRPEDKSKIVAEIRGNVLVLSQHKFANNVVQKCVTHASRTERAVLIDEVCTMNDGPHSALYTMMKDQYANYVVQKMIDVAEPGQRKIVMHKIRPHIATLRKYTYGKHILAKLEKYYMKNGVDLGGPAGSGRADALDDFDLDMLGSDALDDFDLDMLGSDALDDFDLDMLGSDALDDFDLDMLYID
For B2, the “transgene activation with 15, 20, and 47 copies of PBS” value (TetO::tdTomato transgene) was “slightly lower, albeit still substantial transgene activation”.
